# Literature values, collected in US12186373B2, “Compositions in the form of an injectable aqueous solution comprising amylin, an amylin agonist receptor or an amylin analogue and a co-polyamino acid” (ADOCIA, priority 2017, dated 2025).
# Conditions: acidic pH
substance,measurement,value
"amylin: peptide of 37 amino acids which is stored and co-secreted with insulin (KCNTATCATQRLANFLVHSSNNFGAILSSTNVGSNTY; Islet amyloid polypeptide; UniProt P10997 34-70, looked up)",time for which amylin is stable,about fifteen minutes
